Target: human lymphotoxin (TNFβ) (human) (UniProt P01374)
Assay: cell-based or functional assay

Sequence of human lymphotoxin (TNFβ) (human) (P01374 35-205 limits assumed): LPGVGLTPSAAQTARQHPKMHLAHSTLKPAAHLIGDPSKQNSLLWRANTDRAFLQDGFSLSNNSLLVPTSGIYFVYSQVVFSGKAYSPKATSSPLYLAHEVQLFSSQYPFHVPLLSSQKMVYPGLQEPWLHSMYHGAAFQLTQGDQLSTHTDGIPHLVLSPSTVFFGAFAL

p55-sf2 (p55 TNF receptor / IgG1 heavy chain single fusion with truncated light chain JCK) (from UniProt P19438) (Fc fusion)
amount needed for the same inhibition of TNFβ cytotoxicity, against p75P-sf2 (fold (against p75P-sf2)): 3
